Reference: article PMC11958688

How the values were obtained:
Assay in all cases: fluorescence polarisation; FITC-labelled peptide fixed at 4 nM, arrestin titrated (0-50 μM; 0-3.20 μM for C-tail_6P); 20 mM HEPES pH 7.4, 100 mM NaCl, 0.01% DDM; room temperature, 30 min; One Site–Total fit; triplicate
[1] = biological target: NTSR1 C-tail peptide phosphorylated at Thr407/Ser409/Ser410 (human)
[2] = biological target: NTSR1 C-tail peptide phosphorylated at Ser401/Ser403/Ser404 (human)
[3] = biological target: NTSR1 C-tail peptide with hexa-phosphorylation at Ser401/Ser403/Ser404 and Thr407/Ser409/Ser410 (human)

- Kd [1]: 3.77 µM
- Kd [2]: 5.11 µM
- Kd [3]: 0.035 µM
Substance: human βArr1 truncated at residue 382 (constitutively active variant) (from UniProt P49407 1-382) (domain or fragment)
